Measurements from patent publication US7871782B2, “Specific binding members against synaptophysin” (The University Court of the University of Aberdeen, priority 2004, dated 2011).

Legend:
[1] = test system: HSCs; assay: Effect of scAb incubation on HSC viability (attachment, protein assay); type: cell-based, human; settings: 3 hours incubation, 5 μg scAb or indicated chemical, FIG. 12
Protocol: Effect of scAb incubation on HSC viability. HSCs seeded into 24 well plates were incubated in 0.3 mls culture medium containing 5 μg scAb or the indicated-chemical. Cells were incubated for 3 hours prior to removal of medium and washing with 1×PBS. Attachment (as a measure of viability) was determined by a direct protein assay in the culture wells.

[2] = test system: human HSCs; assay: Fluorescence microscopy without fixation: effect of peptides and monensin on FITC-C1-3 scAb binding; type: cell-based; settings: monensin 2.5 and 15 μM; for effect on FITC-C1-3 association/binding to HSCs: added with 10 μg FITC-C1-3 scAb, peptides 0.25-25 nmoles, FIG. 13
Protocol: Effect of synaptophysin peptides and monensin on FITC-C1-3 scAb binding to human HSCs. Human HSCs seeded into 24 well plates were washed and incubated in 500 μl Hepes/HBSS per well for 1 hour containing either: 10 μg C1-3 scAb; 10 μg FITC-C1-3 scAb; 10 μg FITC-C1-3 scAb and 0.25 nmoles of the target peptide; 10 μg FITC-C1-3 scAb and 2.5 nmoles of the target peptide; 10 μg FITC-C1-3 scAb and 25 nmoles of the target peptide; 10 μg FITC-C1-3 scAb and 25 nmoles of the target peptide P1; 10 μg FITC-C1-3 scAb and 2.5 μM monensin; 10 μg FITC-C1-3 scAb and 15 μM monensin; 10 μg FITC-3A8 scAb (scAb raised to microcystin and not expected to bind to HSCs). Cells incubated with monensin were preincubated for 10 minutes. Just prior to addition of scAb, the medium was changed and cells were re-dosed with monensin. […] Bar=μm. Monen=monensin; P1=the […] peptide (SEQ ID NO 27); P2=the target peptide.
HSCs seeded into 24 well plates were washed with Hepes/HBSS and then incubated at 37° C. in 500 μl/well Hepes/HBSS containing 10 μg scAb with or without additional compounds. After 1 hour, the cells were washed 3 times with 500 μl Hepes/HBSS. Cells were analysed using an Axiovert 100 microscope (Zeiss, Germany) using filter set #9 (BP 450-490 nm; LP 515 nm).

[3] = test system: human hepatic stellate cells; assay: Fluorescence microscopy of FITC-labelled scAb with cells; type: cell-based; settings: 10 μg scAb, 1 h, room temperature
Protocol: (§1) FITC-C1-3 scAb was tested for its ability to interact with hepatic stellate cells in culture by fluorescence microscopy. Human hepatic stellate cells were seeded (1×10^3 cells per chamber) on chamber slides (Nunclon, Naperville) in complete medium prior to experimentation. Cells were washed twice in phosphate buffered saline (PBS) and incubated in 500 μl Hepes/HBSS buffer (0.14M NaCl, 5.4 mM KCl, 0.34 mM Na2HPO4, 0.94 mm KH2PO4, 5.6 mM glucose, 1 mM CaCl2, 6 mM HEPES, 4 mM NaHCO3 pH7.4) containing 10 μg scAb or FITC-C1-3 scAb for 1 h at room temperature in the dark. The cells were then washed in PBS and mounted with Vectashield mounting medium (Vector laboratories, Burlingame, Calif.) containing 4′,6′ diamindino-2 phenylindole (DAPI) to stain cell nuclei and coverslips applied. Florescence microscopy was carried out using a Zeiss Axeola II microscope with a Photometrics Sensis camera, and data captured using the Smart Capture programme. Human hepatocytes (UK Human Tissue Bank) were originally cultured in a collagen-coated 24 well plate (1×10^5/well) and maintained in William's medium E supplemented with 80 units/ml penicillin and 80 μg/ml streptomycin.

[4] = test system: human hepatocytes; assay: as above; type: cell-based
Protocol: as §1

[5] = target: T1, target peptide-BSA (Homo sapiens, UniProt P08247); assay: Monoclonal phage-antibody ELISA; type: binding; settings: FIG. 3
T1 construct: host or cells: chemical synthesis (Fmoc), no expression host
Protocol: C1-phage antibody clone (monoclonal) assayed for binding to the target peptide-BSA as outlined for FIG. 2.
(§2) Purified polyclonal phage enriched for binders to peptides were assayed by ELISA using flat bottomed 96-well Immulon-4 microtitre plates (Dynex, Sussex, UK) coated with 2 μg/well protein (peptide-BSA or BSA) in PBS overnight at 4° C. Bound phage were detected by incubation with 100 μl/well horseradish peroxidase (HRP) conjugated anti-M13 antibody (AmershamPharmacia) for 1 h, washing, and incubation with 100 μl/well tetramethylbenzidine dihydrochloride solution (KPL Laboratories, Gaithersburg, Md.). Reactions were stopped with 50 μl/well 1M H2SO4, and the absorbance at 450 nm read using a microtitre plate reader.
Individual colonies from pan 3 were grown in 96 well plates (Greiner) and phage-antibodies rescued with M13 KO7.
Specificity of phage supernatants for binding to peptide-BSA and BSA alone was determined by ELISA. The scFv encoding regions of positive clones were subcloned in to the expression vector pIMS147. This is a modification of the IPTG (isopropyl-β-D-thiogalactopyranoside) inducible pUC based vector pIMS100 (Hayhurst A. et al. Protein Expr Purif 1999; 15:336-43). The addition of a hexa-histadine tag permits purification of the expressed scAb by immobilised metal ion chelate affinity chromatography. Vectors were transformed into E. coli TG1 or XL1 blue cells.

[6] = test system: HepG2 cells; assay: Fluorescence binding to cells; type: cell-based
[7] = target: T2, synaptophysin in rat HSCs (Rattus norvegicus, UniProt P07825); assay: Western analysis of cell extracts probed with C1-3 scAb; type: binding; settings: rat HSC extract, FIG. 8
T2 construct: endogenous in cells; host or cells: rat hepatic stellate cells
Protocol: (§3) Western blot showing the binding of C1-3 scAb to the target peptide. Cell extracts (5 μg/lane) were subjected to Western blotting and membranes probed with C1-3 scAb followed by incubation with HRP conjugated anti-human Cκ light chain antibody and detection using ECL reagent. rHSCs—rat hepatic stellate cells; hHSCs—human hepatic stellate cells (AH4=anonymous patient code); rHCs—rat hepatocytes; B13—rat pancreatic stem cell; B13-H—rat pancreatic stem cell after trans-differentiation into an hepatocyte.
(§4) Western blotting was performed essentially as described in Wright M. C. et al. Mol Pharmacol 1996; 50:856-63.

[8] = target: T3, synaptophysin in human HSCs (Homo sapiens, UniProt P08247); assay: as above; type: binding; settings: human HSC extract, FIG. 8
T3 construct: endogenous in cells; host or cells: human hepatic stellate cells (patient-derived, AH4)
Protocol: as §3, §4

[9] = target: T4, peptide YPFRLHQVYFDAPSC (SEQ ID NO 9) (Homo sapiens, UniProt P08247); assay: Expressed purified anti-peptide scAb ELISA; type: binding
T4 construct: host or cells: chemical synthesis (Fmoc), no expression host
Protocol: Expressed scAb was tested for its ability to interact with the peptide […] (SEQ ID NO: 9) by ELISA using anti-BSA-target peptide scAb. Wells of a 96 well plate were coated with BSA-target peptide or BSA and incubated with either C1-3 scAb (grey bars) or control scAb incubation buffer (clear bars) followed by extensive washing. Bound scAb was detected using the HRP conjugated anti-human Cκ light chain antibody and quantitated as outlined in methods section. Data are the mean and standard deviation of 3 separate determinations. ‘BSA-peptide 2’ is the target peptide.
as §2
Expressed scAb was tested for its ability to interact with peptide by ELISA essentially as outlined for polyclonal anti-peptide phage-antibody ELISAs. […]

[10] = test system: human HSCs; assay: Uptake of scAb and conjugates by human HSCs in culture (Western blot of medium); type: cell-based; settings: 5 μg scAb in 0.3 mls medium, FIG. 11
Protocol: Uptake of C1-3 scAb and C1-3-conjugates by human HSCs in culture. HSCs seeded into 24 well plates were incubated in 0.3 mls culture medium containing 5 μg scAb. Samples of medium were taken at the indicated times and subjected to Western blotting to detect scAb using HRP-conjugated anti-human Cκ light chain antibody (UPPER PANEL) and serum albumin (LOWER PANEL) as a loading control. Results typical of 4 separate experiments.

[11] = test system: COS-7 cells; assay: Fluorescence binding to cells; type: cell-based
[12] = test system: hepatic stellate cell and hepatocytes co-cultured; type: cell-based, human
Protocol: For co-culture experiments, hepatic stellate cells were seeded into hepatocytes cultures (1×10^3 cells per well) and cultured for 24 h prior to experimentation. The C1-3 or FITC-C1-3 scAb was incubated as outlined for pure hepatic stellate cell cultures except that after 1 hour incubation and washing, the cells were harvested by trypsinisation and centrifugation at 1000 rpm for 5 min. The cell pellet was then resuspended in 0.4% formaldehyde/10^6 cells, applied onto glass slides by cytocentrifugation and mounted with Vectashield containing DAPI. Slides were viewed by fluorescence microscopy as before.

T3 sequence (P08247 whole entry): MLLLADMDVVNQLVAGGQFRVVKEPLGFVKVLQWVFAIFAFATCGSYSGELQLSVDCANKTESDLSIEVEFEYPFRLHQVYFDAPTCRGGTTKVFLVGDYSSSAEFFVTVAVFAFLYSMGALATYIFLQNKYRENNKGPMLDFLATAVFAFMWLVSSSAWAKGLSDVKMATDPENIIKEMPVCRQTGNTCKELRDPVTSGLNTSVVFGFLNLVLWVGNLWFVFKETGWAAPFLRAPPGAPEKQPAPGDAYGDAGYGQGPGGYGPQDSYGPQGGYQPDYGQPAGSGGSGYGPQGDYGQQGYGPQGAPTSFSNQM
T2 sequence (P07825 whole entry): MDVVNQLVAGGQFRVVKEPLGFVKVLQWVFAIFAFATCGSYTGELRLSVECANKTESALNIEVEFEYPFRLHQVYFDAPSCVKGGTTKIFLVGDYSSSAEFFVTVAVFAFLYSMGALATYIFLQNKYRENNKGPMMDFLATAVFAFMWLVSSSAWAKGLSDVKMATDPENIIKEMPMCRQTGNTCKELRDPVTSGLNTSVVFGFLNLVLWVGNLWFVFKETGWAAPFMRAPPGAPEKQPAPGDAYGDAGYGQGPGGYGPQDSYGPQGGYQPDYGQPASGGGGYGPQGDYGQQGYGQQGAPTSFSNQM

Molecule: CN(C)CCCN1c2ccccc2Sc2ccc(Cl)cc21 [chlorpromazine]
- toxicity to HSCs (attachment as measure of viability) [1]: kill HSCs

Molecule: CC[C@@]1([C@@H]2O[C@@H]([C@H]3O[C@@](O)(CO)[C@H](C)C[C@@H]3C)C[C@@H]2C)CC[C@H]([C@]2(C)CC[C@]3(C[C@H](O)[C@@H](C)[C@@H]([C@@H](C)[C@@H](OC)[C@H](C)C(=O)O)O3)O2)O1 [monensin]
- effect on FITC-C1-3 association/binding to HSCs [2]: did not inhibit the total number of cells stained
- effect on FITC-C1-3 uptake (nuclear FITC-C1-3 staining) ([2]; 10 minutes preincubation): reduced uptake

Molecule: ATDPENIIKEMPMC (listed as Homo sapiens)
- effect on FITC-C1-3 association/binding to HSCs [2]: did not significantly inhibit

Molecule: FITC-BSA: FITC labelled bovine serum albumin, specificity control [reference compound]
- green fluorescence associated with hepatic stellate cells [3]: displayed cytoplasmic foci of fluorescence
- green fluorescence associated with human hepatocytes [4]: displayed cytoplasmic foci of fluorescence

Molecule: YPFRLHQVYFDAPSC (listed as Homo sapiens) [C1-3 antigen]
- effect on FITC-C1-3 association/binding to HSCs [2]: decreased FITC-C1-3 binding to HSCs in a dose-dependent manner

B1: C1: monoclonal phage-antibody clone from pan 3 of Tomlinson I+J libraries, subcloned to give C1-3 scAb (protein)
scFv: MAEVQLLESGGGLVQPGGSLRLSCAASGFTFSSYAMSWVRQAPGKGLEWVSTIAASGPSTGYADSVKGRFTISRDNSKNTLYLQMNSLRAEDTAVYYCAKTTAKFDYWGQGTLVTVSSGGGGSGGGGSGGGGSTDIQMTQSPSSLSASVGDRVTITCRASQSISSYLNWYQQKPGKAPKLLIYSASRLQSGVPSRFNGSGSGTDFTLTISSLQPEDFATYYCQQLQRKPTTFGQGTKVEIKRGAAA
- binding response in monoclonal phage-antibody ELISA [5]: good binding response

B2: C1-3 scAb: human single-chain antibody fragment with human Cκ domain and His tag, specific for synaptophysin peptide …; amino acid sequence SEQ ID NO 8 (protein)
scFv: MAEVQLLESGGGLVQPGGSLRLSCAASGFTFSSYAMSWVRQAPGKGLEWVSTIAASGPSTGYADSVKGRFTISRDNSKNTLYLQMNSLRAEDTAVYYCAKTTAKFDYWGQGTLVTVSSGGGGSGGGGSGGGGSTDIQMTQSPSSLSASVGDRVTITCRASQSISSYLNWYQQKPGKAPKLLIYSASRLQSGVPSRFNGSGSGTDFTLTISSLQPEDFATYYCQQLQRKPTTFGQGTKVEIKRGAAAPSVFIF
modifications: human Cκ domain and His tag; C1-3 amino acid sequence
- green fluorescence associated with hepatic stellate cells [3]: No detectable green fluorescence
- green fluorescence associated with human hepatocytes [4]: no associated green fluorescence
- fluorescence binding to HepG2 cells [6]: not detected
- cross-reaction with synaptophysin in rat HSCs [7]: did not cross-react
- size of protein bound by scAb in Western analysis [8]: ~32 kDa
- scAb bound to peptide-BSA relative to BSA alone ([9]; ELISA, FIG. 7): approximately 8 times
- recognition of the peptide in ELISA ([9]; expressed scAb from XL-1 blue E coli): specifically recognised the peptide
- association with HSCs: change of culture medium concentration of scAb [10]: reduction in culture medium concentrations
- fluorescence binding to COS-7 cells [11]: not detected
- green fluorescence in hepatic stellate cell/hepatocyte co-cultures [12]: No significant green fluorescence
